Data taken from the DeepSol protein solubility set.

Test: soluble on expression in E. coli; label from the status in PepcDB or PDB records

| Sequence | soluble on expression in E. coli |
| --- | --- |
| MTKYIFVTGGVVSSLGKGITAASLGRLLKNRGLNVTIQKFDPYINVDPGTMSPYQHGEVFVTDDGAETDLDLGHYERFIDINLNKYSNVTTGKIYSSVLQKERRGEYLGGTVQVIPHITNEIKERVYRSGRETNADVVITEIGGTVGDIESLPFLEAIRQIKSDIGRDNVMYIHCTLIPYLKAAGEMKTKPTQHSVKELRSLGIQPNIIVVRTEMPVSQDMKDKLALFCDIDTKAVIEARDADTLYAVPLSLQEQNMDQIVCDHLKLDNPAADMTEWTALVEKVRNLSKKTKIALVGKYVELQDAYISVVEALRHAGYSFDTDVEVKWVNAEHVTAENVQELVGDTDGILVPGGFGDRGVEGKIVAIQYARENKVPFLGICLGMQLASIEFARNVLGLEGANSSEINPDTPYAIIDLLPEQKDVEDLGGTLRLGLYPCKLSEETNAYNAYNEPVVYERHRHRYEFNNQFRPDMEKAGFVFSGTSPDGRLVEIIELKDHPWFVAAQFHPELVSRPNRPQPLFHDFVKASLTNKESK | not soluble |
| MGHHHHHHSHMQSCESSGDSADDPLSRGLRRRGQPRVVVIGAGLAGLAAAKALLEQGFTDVTVLEASSHIGGRVQSVKLGHATFELGATWIHGSHGNPIYHLAEANGLLEETTDGERSVGRISLYSKNGVACYLTNHGRRIPKDVVEEFSDLYNEVYNLTQEFFRHDKPVNAESQNSVGVFTREEVRNRIRNDPDDPEATKRLKLAMIQQYLKVESCESSSHSMDEVSLSAFGEWTEIPGAHHIIPSGFMRVVELLAEGIPAHVIQLGKPVRCIHWDQASARPRGPEIEPRGEGDHNHDTGEGGQGGEEPRGGRWDEDEQWSVVVECEDCELIPADHVIVTVSLGVLKRQYTSFFRPGLPTEKVAAIHRLGIGTTDKIFLEFEEPFWGPECNSLQFVWEDEAESHTLTYPPELWYRKICGFDVLYPPERYGHVLSGWICGEEALVMEKCDDEAVAEICTEMLRQFTGNPNIPKPRRILRSAWGSNPYFRGSYSYTQVGSSGADVEKLAKPLPYTESSKTAPMQVLFSGEATHRKYYSTTHGALLSGQREAARLIEMYRDLFQQGT | soluble |
| MFTSKPAFKIKNKASKSYRNTAVSKKLKEKRLAEHVRPSCFNIIRPLKKDIQIPVPSSRFLNKIQIHRIASGSQNTQFRQFNKTSIKSSKKYLNSFMAFRAYYSQFGSGVKQNVLSSLLAEEWHADKMQHGIWDYFAQQYNFINPGFGFVEWLTNNYAEVRGDGYWEDVFVHLAL | not soluble |
| MYDTEIPYEGKISIYTYFCKECGYRKTEVYSDEKRDPKKITIRIENPDDLRIIVYRSRRADVYIPEMEASIDSAEYSNGEITTIEGIIYRIGEKLDLLAADDQNNKKIASLRKRIDGIINGKFESFTLIIMDESGKSVVHSDKAMVESMD | soluble |
| DKFFIWGKRIDYNALKTTLIKKAQDENLLHFTPKISLVEDGFIRSISLGSDLTRPFSLIVDDKGLYIDPNKASKLEELLQNEIFDENMLNRAKNIIKILLENRFSKYNGLKHEDLKINAKIGQKIILIPAQVEDDASMILGGFGLSTLDLLKEVRAKNQDAYIIFKPHPDVLSGNRVGLKDETLILEFCDEIVKDCSIDSAIKIADEIHTITSTSGFDALLRAKKVFTYGMPFYAGWGLTKDKYRCERRIRKLSLEELVAGALIIYPRY | not soluble |
| MQLNMMLENRDYTLVIDHSASMAKPDGNSENSKWQAIQESTFALARKCEEFDSDGITVYLFSKTFQRYDYVNSAKVKQLFAENSPSETTNLVGVLQDAINSYFQRKSLGKTKPAGEVILVITDGAPVDSQAVCEVIIKATHLVESANELRISIIQVGSDSHATKFLKALDDHLQSVGAKFDICDTITLDELEITNLSDVLMKAITDLEHHHHHH | soluble |
| VTSDPGTAAPVKRTAEQSRSLIVDAAGRAFATRPYREITLKDIAEDAGVSAPLIIKYFGSKEQLFDALVDFRAAAEIVFSGPLDGLGERMVSMFARPLEPYKPLSLNILFMSGPSEESSRKLRANYSAQMIDALAERLPGRDARLRAELVMSMLTGLAVMRRKMMQEHATGTPEEVVAHYAPLVQELLDG | soluble |
